Paper PMC3976988 (Nature structural & molecular biology, 2013)

Molecular target: exosome core (S. cerevisiae, UniProt P46948 1-246; Q05636 1-305; Q12277 1-265; P25359 1-394; P48240 1-250; P53256 …)
Assay: tandem affinity purification + ion-exchange chromatography

B1: Rrp44 (enzyme, S. cerevisiae, UniProt Q08162 1-1001, looked up)
chain: MSVPAIAPRRKRLADGLSVTQKVFVRSRNGGATKIVREHYLRSDIPCLSRSCTKCPQIVVPDAQNELPKFILSDSPLELSAPIGKHYVVLDTNVVLQAIDLLENPNCFFDVIVPQIVLDEVRNKSYPVYTRLRTLCRDSDDHKRFIVFHNEFSEHTFVERLPNETINDRNDRAIRKTCQWYSEHLKPYDINVVLVTNDRLNREAATKEVESNIITKSLVQYIELLPNADDIRDSIPQMDSFDKDLERDTFSDFTFPEYYSTARVMGGLKNGVLYQGNIQISEYNFLEGSVSLPRFSKPVLIVGQKNLNRAFNGDQVIVELLPQSEWKAPSSIVLDSEHFDVNDNPDIEAGDDDDNNESSSNTTVISDKQRRLLAKDAMIAQRSKKIQPTAKVVYIQRRSWRQYVGQLAPSSVDPQSSSTQNVFVILMDKCLPKVRIRTRRAAELLDKRIVISIDSWPTTHKYPLGHFVRDLGTIESAQAETEALLLEHDVEYRPFSKKVLECLPAEGHDWKAPTKLDDPEAVSKDPLLTKRKDLRDKLICSIDPPGCVDIDDALHAKKLPNGNWEVGVHIADVTHFVKPGTALDAEGAARGTSVYLVDKRIDMLPMLLGTDLCSLKPYVDRFAFSVIWELDDSANIVNVNFMKSVIRSREAFSYEQAQLRIDDKTQNDELTMGMRALLKLSVKLKQKRLEAGALNLASPEVKVHMDSETSDPNEVEIKKLLATNSLVEEFMLLANISVARKIYDAFPQTAMLRRHAAPPSTNFEILNEMLNTRKNMSISLESSKALADSLDRCVDPEDPYFNTLVRIMSTRCMMAAQYFYSGAYSYPDFRHYGLAVDIYTHFTSPIRRYCDVVAHRQLAGAIGYEPLSLTHRDKNKMDMICRNINRKHRNAQFAGRASIEYYVGQVMRNNESTETGYVIKVFNNGIVVLVPKFGVEGLIRLDNLTEDPNSAAFDEVEYKLTFVPTNSDKPRDVYVFDKVEVQVRSVMDPITSKRKAELLLK
- stoichiometry N: 1 molar ratio
